Measurements from patent US20210380994A1, “LACTOCOCCUS LACTIS EXPRESSION SYSTEM FOR DELIVERING PROTEINS EFFICACIOUS FOR THE TREATMENT OF EPITHELIAL BARRIER FUNCTION DISORDERS” (Second Genome, Inc., priority 2018, published 2021).

Columns and labels:
[1] = test system: C57BL/6 mice treated with DSS; assay: therapeutic DSS model of inflammatory bowel disease, treatment after 7 days DSS (Examples 5, 13B); format: in vivo; conditions: for body weight change: 50 nmoles/kg, day 11, p<0.05; for colon weight to length ratio: p<0.01
Procedure: Following a 7-day acclimation period, the mice were provided with drinking water containing 2.5% DSS for 7 days. Fresh 2.5% DSS water was prepared every 2 days during the 7 day DSS administration. For this therapeutic DSS study, SG-11 used to treat the animals was fused at its N-terminus to a FLAG Tag (DYKDDDDK; SEQ ID NO:32).
On day 7, normal drinking water was restored and i.p. treatments of 50 nmole/kg of SG-11 ([…]) or Gly2-GLP2 (0.2 mg/kg) were initiated. Treatments were administered twice a day (b.i.d.), with a morning and evening dose (every 8 and 16 hours) for six days.
Body weight was measured daily during the morning treatment. The colon tissue was then harvested and length was measured in centimeters and the tissue was weighed. Fecal material was flushed from the colon and residual PBS removed by gently running the colon tissue through a pair of forceps. The colon tissue was then weighed and colon weight to length ratio in mg/mm was determined. Following weight measurements proximal and distal colon tissue was banked for RNA and protein analysis and the remaining tissues was fixed in 10% neutral buffered formalin for histopathology. Statistical analysis was performed by a one-way ANOVA compared to DSS+vehicle for serum 4KDa-FITC translocation, scrum LBP concentrations, colon length, and colon weight to length ratio, while a two-way ANOVA was performed for analysis of body weight. In all analysis, a Fisher's LSD test for multiple comparisons was used. Graphs represent data pooled from two experiments, and are plotted as mean±SEM.
Histopathology analysis was performed on proximal and distal colon tissues from the therapeutic DSS model described above. Proximal (FIG. 13A) and distal (FIG. 13B) colon scores (range 0-4) are presented as well as the total score for the colon which represents the sum of proximal and distal colon scores (Range 0-8) (FIG. 13C). LMA=Loss of mucosal architecture, Edema=Edema, INF=Inflammation, TMI=Transmural inflammation, MH=Mucosal hyperplasia, DYS=Dysplasia. Graphs represent data pooled from two independent experiments, and are plotted as mean±SEM. Statistical analysis was performed by a one-way ANOVA compared to DSS+vehicle followed by a Fisher's LSD test for multiple comparisons.
In the second experiment (Example 13B), mice were provided with drinking water containing 2.5% DSS for 7 days. […] Treatments were administered twice a day (b.i.d.), with a morning and evening dose (every 8 and 16 hours) for 4 days. For both the prophylactic and therapeutic models, fresh 2.5% DSS water was prepared every 2 days during the DSS administration.
At the end of each DSS model study, mice were fasted for 4 hours and then orally gavaged with 600 mg/kg 4KDa dextran labeled with FITC [4KDa-FITC]. One hour after the 4KDa-FITC gavage, mice were euthanized, blood was collected, and FITC signal was measured in serum. […] Data in both graphs are plotted as mean±SEM and each figure represent data from an individual experiment (n=10 per group).
Upon completion of the OSS models above. LBP levels were measured as an inflammation centric readout of barrier function following the protocol detailed in Example 5. Upon completion of both DSS models (Examples 13A and 13B), blood was collected and serum was isolated. LPS binding protein (LBP) levels were measured in serum using a commercially available ELISA Kit (Enzo Lift Sciences).

[2] = PTM of SG-11 versus SG-11V5 after storage, LC-MS/MS (Example 10); format: physicochemical
Procedure: For this analysis, PTMs of wildtype SG-11 (SEQ ID NO:7) and SG-11V5 (SEQ ID NO:19) were compared. In the first analysis (results provided in Table 10 below), the proteins were stored at a concentration of 1 mg/ml in Buffer 1 (50 mM NaPO4, pH 8, 150 mM NaCl, 10% glycerol) and stored for 2 weeks at either 4° C. or 40° C. The proteins were then treated with DTT and Iodoacetamide (IAA), followed by trypsin digestion. The digested samples were then analyzed by Waters ACQUITY UPLC couples to Xevo G2-XS QTOF mass spectrometer using a Protein BEH C18 column.
In a second analysis, the SG-11 (SEQ ID NO:7) and SG-11V5 (SEQ ID NO:19) proteins were each stored at 40° C. in a variety of buffers. The storage buffer used in this experiment was 100 mM NaPO4, pH7, with 10% sorbitol (+Sor) or without 10% sorbitol (−Sor) and with 10% glycerol (+Gly) or without 10% glycerol (−Gly) as indicated in Table 11. […] There were also differences in levels of N137 deamidation for the two proteins with the presence of at least glycerol and also the presence of both sorbitol and glycerol resulting in large decreases in N137 deamidation.

[3] = Example 13B, 50 nmole/kg i.p. b.i.d. 4 days after 7 days DSS
[4] = 1 mg/ml in Buffer 1 (50 mM NaPO4, pH 8, 150 mM NaCl, 10% glycerol), 2 weeks at 4° C.
[5] = 1 mg/ml in Buffer 1, 2 weeks at 4° C.
[6] = 1 mg/ml in Buffer 1, 2 weeks at 40° C.
[7] = 40° C., 100 mM NaPO4, pH7, + Sor − Gly
[8] = 40° C., 100 mM NaPO4, pH7, + Sor − Sly (so in the source)
[9] = 40° C., 100 mM NaPO4, pH7, − Sor − Gly (first column)
[10] = 40° C., 100 mM NaPO4, pH7, − Sor − Gly (third column as printed)
[11] = Example 5, 50 nmole/kg i.p. b.i.d. six days after 7 days DSS

| Molecule | colon length ([1]; Example 13B (FIG. 22B)) | serum LBP [1, 3] | body weight change ([1]; Example 13B) | colon weight to length ratio ([1]; Example 13B) | Oxidation of M1 [2, 4] | Deamidation of N137 [2, 5] | Deamidation of N137 [2, 6] | Oxidation of M1 [2, 6] | Deamidation of N137 [2, 7] | Oxidation of M1 [2, 7] | Deamidation of N137 [2, 8] | Oxidation of M1 [2, 8] | Deamidation of N137 [2, 9] | Oxidation of M1 [2, 9] | Deamidation of N137 [2, 10] | Oxidation of M1 [2, 10] | also measured |
| --- | --- | --- | --- | --- | --- | --- | --- | --- | --- | --- | --- | --- | --- | --- | --- | --- | --- |
| SG-11V5: variant of SEQ ID NO:7 with N53S, N83S, C147V, C151S (protein, Artificial variant of SG-11 (N53S, N83S, C147V, C151S)) MLEGEESVVYVGKKGVIASLDVETLDQSYYDETELKSYVDAEVEDYTAEHGKSAVKVESLKVEDGVAKLKMKYKTPEDYTAFSGIELYQGKVVASLAAGYVYDGEFARVEEGKVVGAATKQDIYSEDDLKVAIIRANTDVKVDGEIVYVSSQNVKLTGKDSVSIRDGYYLETGSVTASVDVTGQESVGTEQLSGTEQMEMTGEPVNADDTEQTEAAAGDGSFETDVYTFIVYK | significant increase in the colon length | no reduction in LBP | statistically improved body weight changes | significantly improved colon weight to length ratios | 2.5% | 0.1% | 0.3% | 4.7% | 3.3% | 3.3% | 0.1% | 5.9% | 1.5% | 2.7% | 0.4% | 5.6% | – |
| SG-11: Roseburia hominis protein comprising SEQ ID NO:3; tested as SEQ ID NO:5, SEQ ID NO:7 or FLAG-tagged SEQ ID NO:9 (protein, listed as Rosburia hominis) LEGEESVVYVGKKGVIASLDVETLDQSYYDETELKSYVDAEVEDYTAEHGKNAVKVESLKVEDGVAKLKMKYKTPEDYTAFNGIELYQGKVVASLAAGYVYDGEFARVEEGKVVGAATKQDIYSEDDLKVAIIRANTDVKVDGEICYVSCQNVKLTGKDSVSIRDGYYLETGSVTASVDVTGQESVGTEQLSGTEQMEMTGEPVNADDTEQTEAAAGDGSFETDVYTFIVYK | significant increase in the colon length | no reduction in LBP | statistically improved body weight changes | significantly improved colon weight to length ratios | 8.9% | 1.0% | 0.9% | 12.5% | 2.6% | 12.1% | 2.5% | 27.8% | 0.9% | 20% | 3.0% | 38.6% | histopathology: inflammation and transmural inflammation scores ([1]; Example 5): no change; histopathology: loss of mucosal architecture score ([1]; Example 5): modest, but significant reduction; body weight [1, 11]: significant improvements; colon length [1, 11]: significant improvements; colon weight to length [1, 11]: significant improvements; serum LBP ([1]; Example 5, 50 nmole/kg i.p. b.i.d. six days after 7 days DSS, FLAG-tagged SG-11): no reduction in LBP; frequency of thick colons ([1]; Example 5, DSS+vehicle 88%, p<0.0001): 25%; Deamidation of N83 [2, 5]: 19.4%; Deamidation of N83 [2, 6]: 98.1%; Deamidation of N83 [2, 7]: 93.9%; Deamidation of N83 [2, 8]: 87.4%; Deamidation of N83 [2, 9]: 98.1%; Deamidation of N83 [2, 10]: 96.2% |
